We go through four molecules from patent publication US20200268910A1 (SANFORD BURNHAM PREBYS MEDICAL DISCOVERY INSTITUTE, published 2020).

Bridge positions count the residues as written; N and C are the ends. Ends that are not written are not given here. FAM = 5(6)-carboxyfluorescein; Ahx = NCCCCCC(=O)O

For assay [1], the target named is mouse CD206 on peritoneal cells from 4T1 tumor-bearing mice (mouse) (UniProt Q61830). Description: flow cytometry on peritoneal cells of 4T1 tumor mice; 10 µg/mL antibody, then FAM-UNO at 0.5 µg/mL.
Assay [2] has as its target T1, mouse CD206 on peritoneal cells from 4T1 tumor-bearing mice (mouse, UniProt Q61830 20-1456).
T1 construct: whole, on cells; Primary cells that carry many other proteins; also called MRC1; mannose receptor
T1 sequence (looked up): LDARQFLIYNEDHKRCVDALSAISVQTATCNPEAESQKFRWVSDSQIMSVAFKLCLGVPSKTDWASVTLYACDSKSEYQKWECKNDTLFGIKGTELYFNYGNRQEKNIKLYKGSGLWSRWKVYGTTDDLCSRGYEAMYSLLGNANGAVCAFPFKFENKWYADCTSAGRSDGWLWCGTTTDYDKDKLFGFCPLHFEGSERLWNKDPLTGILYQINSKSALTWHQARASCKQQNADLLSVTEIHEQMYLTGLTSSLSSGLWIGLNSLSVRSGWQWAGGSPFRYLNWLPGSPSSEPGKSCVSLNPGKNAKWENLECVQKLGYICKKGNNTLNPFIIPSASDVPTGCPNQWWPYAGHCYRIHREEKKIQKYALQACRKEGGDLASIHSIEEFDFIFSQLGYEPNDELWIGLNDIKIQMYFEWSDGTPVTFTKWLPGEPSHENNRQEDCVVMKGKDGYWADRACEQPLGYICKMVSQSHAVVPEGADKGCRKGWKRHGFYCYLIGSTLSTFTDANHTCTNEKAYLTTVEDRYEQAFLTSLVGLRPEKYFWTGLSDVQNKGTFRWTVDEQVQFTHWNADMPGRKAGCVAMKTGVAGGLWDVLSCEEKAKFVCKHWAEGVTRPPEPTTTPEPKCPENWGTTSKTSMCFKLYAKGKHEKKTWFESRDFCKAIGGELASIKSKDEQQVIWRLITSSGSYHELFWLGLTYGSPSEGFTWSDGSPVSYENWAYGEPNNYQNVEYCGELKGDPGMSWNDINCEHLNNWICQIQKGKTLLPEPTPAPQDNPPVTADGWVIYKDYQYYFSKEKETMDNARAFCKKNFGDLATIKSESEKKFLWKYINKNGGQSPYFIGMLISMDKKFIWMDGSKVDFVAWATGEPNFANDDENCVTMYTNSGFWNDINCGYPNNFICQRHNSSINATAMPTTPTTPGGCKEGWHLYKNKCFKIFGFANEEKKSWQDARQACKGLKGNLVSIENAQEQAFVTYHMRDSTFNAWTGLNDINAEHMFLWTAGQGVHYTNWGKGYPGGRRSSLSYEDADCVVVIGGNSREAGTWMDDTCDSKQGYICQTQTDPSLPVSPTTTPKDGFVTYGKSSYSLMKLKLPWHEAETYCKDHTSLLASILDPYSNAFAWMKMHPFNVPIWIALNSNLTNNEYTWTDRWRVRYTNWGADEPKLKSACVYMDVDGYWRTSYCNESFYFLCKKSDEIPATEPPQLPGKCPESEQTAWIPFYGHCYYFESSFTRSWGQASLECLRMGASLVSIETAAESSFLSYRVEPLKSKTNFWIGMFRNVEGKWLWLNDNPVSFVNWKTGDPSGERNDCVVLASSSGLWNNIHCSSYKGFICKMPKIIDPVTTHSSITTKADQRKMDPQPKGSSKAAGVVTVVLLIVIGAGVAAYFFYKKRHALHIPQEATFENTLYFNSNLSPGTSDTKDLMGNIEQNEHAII
The experiment in a line: flow cytometry on peritoneal cells, legend of FIG. 4D. The procedure: Mice were anesthetized and intraperitoneally injected with 5 mL of PBS+1% BSA, the abdomen was massaged to detach macrophages and the peritoneal fluid was collected. This procedure typically yielded 5-9×10⁶ cells. Cells were concentrated to 1 mL in the same peritoneal fluid. For FAM-peptide incubation, the peptides were incubated for 30 minutes at 4° C. For antibody incubation the cells were incubated with antibody for 1 h at 4° C. A647 Rat anti-CCR2 (Biolegend, CA, USA. Catalog number 150603) was incubated for 1 h at 4° C. at a dilution of 1/200. FAM-peptides were incubated at a concentration of 0.5 μg/mL, and Rat anti-CD206 (Bio-Rad, CA, USA. Product code MCA2235GA) was incubated at a concentration of 10 μg/mL. Binding of FAM-peptides was monitored with 488 nm channel and CCR2 labeling was assessed in the 647 nm channel using A647 Anti-CCR2 (Biolegend, CA, USA). After incubation of FAM-Peptides or antibodies, the cells were washed 3 times at 4° C. with PBS-Tby centrifugation at 250 g for 6 minutes, followed by flow cytometry analysis (Accuri, BD Biosciences, CA, USA).
The effect of a blocking anti-CD206 antibody on FAM-UNO binding to peritoneal cells isolated from 4T1 tumor mice was studied. Flow cytometry experiments were performed by incubating FAM-peptide with the cells suspended in the peritoneal fluid; this i.p. fluid also contained glutathione (FIG. 24). […]
(In flow cytometry, cells or beads pass a laser one at a time.)

Assay [3] deals with T2, recombinant human macrophage mannose receptor rhMMR/CD206 (human, UniProt P22897 19-1383, limits assumed).
T2 construct: Bought recombinant protein; also called human recombinant CD206; hCD206
T2 sequence (looked up): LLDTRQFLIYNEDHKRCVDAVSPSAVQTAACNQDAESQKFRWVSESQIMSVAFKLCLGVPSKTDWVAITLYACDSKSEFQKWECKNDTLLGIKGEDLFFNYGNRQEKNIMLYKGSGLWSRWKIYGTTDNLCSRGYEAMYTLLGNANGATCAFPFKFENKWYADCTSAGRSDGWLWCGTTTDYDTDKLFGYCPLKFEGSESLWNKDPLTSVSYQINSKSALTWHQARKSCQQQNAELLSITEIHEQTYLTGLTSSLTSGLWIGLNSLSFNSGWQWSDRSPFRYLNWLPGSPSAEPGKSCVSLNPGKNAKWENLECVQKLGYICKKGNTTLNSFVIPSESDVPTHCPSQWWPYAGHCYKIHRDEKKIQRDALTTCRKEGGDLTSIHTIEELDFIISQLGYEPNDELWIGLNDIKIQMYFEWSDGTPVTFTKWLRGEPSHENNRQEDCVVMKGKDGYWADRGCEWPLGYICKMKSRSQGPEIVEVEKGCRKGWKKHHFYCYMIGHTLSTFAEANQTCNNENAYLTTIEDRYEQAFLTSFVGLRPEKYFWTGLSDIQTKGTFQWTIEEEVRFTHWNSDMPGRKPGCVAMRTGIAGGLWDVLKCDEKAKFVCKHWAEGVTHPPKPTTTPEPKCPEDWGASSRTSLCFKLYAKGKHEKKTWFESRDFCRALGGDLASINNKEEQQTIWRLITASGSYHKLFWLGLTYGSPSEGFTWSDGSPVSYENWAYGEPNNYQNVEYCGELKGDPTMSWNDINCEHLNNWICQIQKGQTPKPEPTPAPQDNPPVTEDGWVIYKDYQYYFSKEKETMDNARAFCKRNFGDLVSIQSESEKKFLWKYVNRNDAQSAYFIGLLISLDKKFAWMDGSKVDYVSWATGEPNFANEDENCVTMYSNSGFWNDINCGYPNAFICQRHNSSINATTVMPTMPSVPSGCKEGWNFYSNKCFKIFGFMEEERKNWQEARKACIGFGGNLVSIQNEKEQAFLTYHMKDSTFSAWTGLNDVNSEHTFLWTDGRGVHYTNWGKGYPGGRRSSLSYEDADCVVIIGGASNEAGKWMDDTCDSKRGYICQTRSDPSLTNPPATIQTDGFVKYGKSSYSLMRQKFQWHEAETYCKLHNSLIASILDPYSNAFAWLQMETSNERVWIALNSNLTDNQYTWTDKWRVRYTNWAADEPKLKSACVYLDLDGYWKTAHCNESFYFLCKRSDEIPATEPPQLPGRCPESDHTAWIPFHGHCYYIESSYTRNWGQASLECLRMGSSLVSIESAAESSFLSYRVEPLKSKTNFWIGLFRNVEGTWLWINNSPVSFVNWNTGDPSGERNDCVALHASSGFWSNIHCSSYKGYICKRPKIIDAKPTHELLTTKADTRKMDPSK
Description: fluorescence anisotropy, in solution, kinetic mode.

Assay [4] has as its target T3, recombinant mouse macrophage mannose receptor rmMMR/CD206 (mouse, UniProt Q61830 20-1388, limits assumed).
T3 construct: Bought recombinant protein; also called mouse recombinant CD206; MRC1
T3 sequence (looked up): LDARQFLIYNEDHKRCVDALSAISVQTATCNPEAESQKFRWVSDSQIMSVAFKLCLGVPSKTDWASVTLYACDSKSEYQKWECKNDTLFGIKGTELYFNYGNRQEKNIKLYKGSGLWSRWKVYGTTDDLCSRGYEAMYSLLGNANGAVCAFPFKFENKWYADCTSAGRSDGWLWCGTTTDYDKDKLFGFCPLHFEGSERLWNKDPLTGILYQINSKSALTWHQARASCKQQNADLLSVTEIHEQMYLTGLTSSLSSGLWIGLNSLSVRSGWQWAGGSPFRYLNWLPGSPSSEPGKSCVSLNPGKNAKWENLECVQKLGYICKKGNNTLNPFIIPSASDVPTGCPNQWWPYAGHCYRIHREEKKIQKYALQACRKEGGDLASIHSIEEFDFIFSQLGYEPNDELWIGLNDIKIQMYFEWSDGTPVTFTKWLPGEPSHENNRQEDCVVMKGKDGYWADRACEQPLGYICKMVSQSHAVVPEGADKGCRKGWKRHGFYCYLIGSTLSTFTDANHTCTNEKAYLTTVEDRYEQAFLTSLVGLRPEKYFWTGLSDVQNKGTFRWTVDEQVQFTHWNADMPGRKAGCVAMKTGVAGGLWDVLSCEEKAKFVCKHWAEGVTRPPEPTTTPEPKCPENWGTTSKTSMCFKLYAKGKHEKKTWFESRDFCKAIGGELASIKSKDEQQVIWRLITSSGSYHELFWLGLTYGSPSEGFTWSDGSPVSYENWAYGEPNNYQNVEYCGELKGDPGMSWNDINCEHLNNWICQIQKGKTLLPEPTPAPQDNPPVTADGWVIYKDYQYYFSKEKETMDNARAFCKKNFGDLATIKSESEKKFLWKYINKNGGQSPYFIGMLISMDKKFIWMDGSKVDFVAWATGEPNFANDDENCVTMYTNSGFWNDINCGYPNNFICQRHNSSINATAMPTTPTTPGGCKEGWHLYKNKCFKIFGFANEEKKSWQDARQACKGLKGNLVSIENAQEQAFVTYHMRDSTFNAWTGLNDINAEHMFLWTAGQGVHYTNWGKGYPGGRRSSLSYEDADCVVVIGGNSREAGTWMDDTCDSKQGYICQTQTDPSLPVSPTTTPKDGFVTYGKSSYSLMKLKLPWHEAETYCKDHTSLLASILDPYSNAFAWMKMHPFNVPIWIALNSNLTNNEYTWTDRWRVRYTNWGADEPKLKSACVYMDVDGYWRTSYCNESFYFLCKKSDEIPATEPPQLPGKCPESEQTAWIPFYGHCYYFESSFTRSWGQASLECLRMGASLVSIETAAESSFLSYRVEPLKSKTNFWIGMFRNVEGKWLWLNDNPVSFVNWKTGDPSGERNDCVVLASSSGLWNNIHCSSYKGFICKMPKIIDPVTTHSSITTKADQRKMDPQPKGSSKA
Description: fluorescence anisotropy, in solution, kinetic mode. (Polarisation of emitted light reports the rotation of a fluorescent probe.)

In the next assay the target is recombinant mouse CD163 (mouse, UniProt Q2VLH6 39-1045, limits assumed). The experiment in a line: fluorescence anisotropy, in solution, kinetic mode.
recombinant mouse CD163, sequence (Q2VLH6 39-1045 limits assumed): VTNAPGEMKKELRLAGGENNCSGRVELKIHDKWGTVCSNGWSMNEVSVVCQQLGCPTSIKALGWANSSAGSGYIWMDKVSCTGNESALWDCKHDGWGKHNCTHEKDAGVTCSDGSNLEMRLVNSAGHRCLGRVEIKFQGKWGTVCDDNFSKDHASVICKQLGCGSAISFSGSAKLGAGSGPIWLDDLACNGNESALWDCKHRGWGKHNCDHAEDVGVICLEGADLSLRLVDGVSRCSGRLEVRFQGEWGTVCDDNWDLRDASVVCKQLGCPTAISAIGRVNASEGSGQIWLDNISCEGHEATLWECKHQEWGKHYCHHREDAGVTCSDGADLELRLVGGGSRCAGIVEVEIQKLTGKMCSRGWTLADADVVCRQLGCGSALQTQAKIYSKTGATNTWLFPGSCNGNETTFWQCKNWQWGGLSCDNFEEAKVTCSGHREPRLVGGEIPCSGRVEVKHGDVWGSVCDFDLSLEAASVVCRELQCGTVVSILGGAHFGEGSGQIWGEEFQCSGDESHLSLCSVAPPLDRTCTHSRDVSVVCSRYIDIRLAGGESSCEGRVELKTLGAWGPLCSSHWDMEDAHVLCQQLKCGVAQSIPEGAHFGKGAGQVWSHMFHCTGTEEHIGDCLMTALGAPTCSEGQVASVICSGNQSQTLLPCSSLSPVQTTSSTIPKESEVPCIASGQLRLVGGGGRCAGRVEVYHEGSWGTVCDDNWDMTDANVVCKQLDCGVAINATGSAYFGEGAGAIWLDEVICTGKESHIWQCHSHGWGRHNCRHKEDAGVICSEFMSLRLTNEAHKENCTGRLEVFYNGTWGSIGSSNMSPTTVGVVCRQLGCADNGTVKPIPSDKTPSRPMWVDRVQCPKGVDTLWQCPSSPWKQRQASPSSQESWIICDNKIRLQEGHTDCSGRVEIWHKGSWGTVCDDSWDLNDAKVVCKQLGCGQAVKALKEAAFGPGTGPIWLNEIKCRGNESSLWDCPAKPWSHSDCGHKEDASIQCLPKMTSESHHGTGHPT
The target in assay [5] is T3, recombinant mouse macrophage mannose …. Description: fluorescence anisotropy, in solution, 50 nM peptide and 1 µM protein. The procedure: In all experiments, FA signal measurements were done under pseudo first-order conditions with 50 nM singly labelled FAM peptides and 1 μM proteins. […] Assays were carried out in kinetic mode in a total volume of 30 μl at 25° C. on the PHERAstar (BMG Labtech, Germany) microplate reader using an optical module with excitation and emission filters of 485 nm (slit 10 nm) and 520 nm (slit 10 nm), respectively. Dual emission detection mode allows simultaneous recording of intensities that are parallel (l) and perpendicular (1) to the plane of excitation light. Sensitivities of channels (G factor) were corrected with gain adjustment of the photomultiplier tubes (PMTs) using fluorescein as a standard. The background fluorescence (receptor and buffer components in the absence of fluorescent ligand) was subtracted independently from all intensity channels. FA signals at time t after initiation of binding reaction was calculated as parameters r(t) from the equation: […]

As for “rat anti-CD206 antibody (Bio-Rad, product code MCA2235GA)”, the reduction of FAM-UNO binding in assay [1] was determined as 25%.

B1: FAM-UNO (cyclic, disulfide-bridged FAM-labeled CSPGAKVRC) (peptide)
peptide: {FAM-Ahx}-CSPGAKVRC
modifications: disulfide 1-9
notes: Cyclic CX7C peptide from a phage library, used as a synthetic FAM-labeled peptide without reduction; also called FAM-labeled UNO
As for B1, the binding result was “binds” in assay [2] and “no binding (tested: 100 nM FAM peptide, 0.4 µM protein)” in assay [3].

B2: FAM-CPMTDNE (control peptide) (peptide)
peptide: {FAM-Ahx}-CPMTDNE
notes: Control peptide of the fluorescence anisotropy assay
In the case of B2, the binding result in assay [4] was “no binding (tested: 50 nM FAM peptide, 1 µM protein)”.

B3: FAM-CSPGAK (peptide)
peptide: {FAM-Ahx}-CSPGAK
notes: also called linear CSPGAK
Turning to B3, the binding result in the assay with recombinant mouse CD163 is listed as “no binding (tested: 50 nM FAM peptide, 1 µM protein)”; in assay [5], “binds”.
